Experimental data reported in patent publication US20080317723A1, “LYMPHATIC ENDOTHELIAL CELLS MATERIALS AND METHODS” (VEGENICS LIMITED, priority 2001, published 2008).

T1: VEGFR-3/EpoR (Homo sapiens, UniProt P35916)
T1 construct: a chimeric receptor containing the extracellular domain of human VEGFR-1, VEGFR-2 or VEGFR-3 fused with the transmembrane and cytoplasmic domains; expressed in transfected cells; host or cells: murine Ba/F3 pre-B cells, stably transfected
T1 sequence (P35916 25-775 limits assumed): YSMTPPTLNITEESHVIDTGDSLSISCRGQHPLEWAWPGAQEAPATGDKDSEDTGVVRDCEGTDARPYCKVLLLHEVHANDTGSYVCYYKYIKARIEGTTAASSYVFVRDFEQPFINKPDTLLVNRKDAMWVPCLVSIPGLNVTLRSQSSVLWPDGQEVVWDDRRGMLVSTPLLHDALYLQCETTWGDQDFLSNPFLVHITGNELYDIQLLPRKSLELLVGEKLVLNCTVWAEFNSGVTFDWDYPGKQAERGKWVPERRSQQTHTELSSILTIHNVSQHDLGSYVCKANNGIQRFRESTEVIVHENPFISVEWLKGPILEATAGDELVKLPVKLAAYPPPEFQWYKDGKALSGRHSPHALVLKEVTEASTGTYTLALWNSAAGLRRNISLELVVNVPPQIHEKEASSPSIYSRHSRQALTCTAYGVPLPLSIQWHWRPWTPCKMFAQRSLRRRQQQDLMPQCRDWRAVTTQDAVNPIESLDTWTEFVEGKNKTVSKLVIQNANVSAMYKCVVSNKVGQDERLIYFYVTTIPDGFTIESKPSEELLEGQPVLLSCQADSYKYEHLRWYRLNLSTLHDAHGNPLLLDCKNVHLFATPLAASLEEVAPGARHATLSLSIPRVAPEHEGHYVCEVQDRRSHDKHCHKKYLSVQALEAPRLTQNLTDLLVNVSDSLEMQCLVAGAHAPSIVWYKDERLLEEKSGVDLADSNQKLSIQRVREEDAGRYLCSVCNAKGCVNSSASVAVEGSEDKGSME


Assays:
VEGFR-1/EpoR = molecular target: T2, VEGFR-1/EpoR (Homo sapiens, UniProt P17948); experiment: Ba/F3 bioassay, viability (MTT) of VEGFR-1/EpoR cells; type: cell-based; details: FIG. 1A
T2 construct: a chimeric receptor containing the extracellular domain of human VEGFR-1, VEGFR-2 or VEGFR-3 fused with the transmembrane and cytoplasmic domains; expressed in transfected cells
T2 sequence (P17948 27-758 limits assumed): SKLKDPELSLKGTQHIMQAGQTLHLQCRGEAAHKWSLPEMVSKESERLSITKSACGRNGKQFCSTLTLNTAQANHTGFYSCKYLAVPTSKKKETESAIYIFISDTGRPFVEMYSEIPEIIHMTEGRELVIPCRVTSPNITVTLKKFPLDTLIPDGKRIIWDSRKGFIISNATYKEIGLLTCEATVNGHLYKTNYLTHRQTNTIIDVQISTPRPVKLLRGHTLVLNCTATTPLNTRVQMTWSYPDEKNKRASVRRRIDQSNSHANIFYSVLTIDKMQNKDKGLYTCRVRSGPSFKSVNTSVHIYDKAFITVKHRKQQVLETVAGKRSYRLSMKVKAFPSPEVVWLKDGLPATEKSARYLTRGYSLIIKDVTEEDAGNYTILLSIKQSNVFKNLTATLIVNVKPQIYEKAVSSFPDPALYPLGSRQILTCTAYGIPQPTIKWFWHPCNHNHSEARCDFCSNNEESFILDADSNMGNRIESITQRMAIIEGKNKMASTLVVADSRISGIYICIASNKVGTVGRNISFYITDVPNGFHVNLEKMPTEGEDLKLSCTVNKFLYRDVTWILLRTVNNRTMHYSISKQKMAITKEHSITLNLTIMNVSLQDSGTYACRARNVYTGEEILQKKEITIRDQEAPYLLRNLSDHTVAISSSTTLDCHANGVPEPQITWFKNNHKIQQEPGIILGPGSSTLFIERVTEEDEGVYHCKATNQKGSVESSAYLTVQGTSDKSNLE
Description: (§1) FIG. 1A-FIG. 1C. Analysis of the receptor-specificities of different VEGFs using the Ba/F3 bioassay. Measurement of the viability of Ba/F3 cells expressing the chimeric receptors VEGFR-1/EpoR (FIG. 1A), VEGFR-2/EpoR (FIG. 1B) or VEGFR-3/EpoR (FIG. 1C) in the presence of different VEGFs at indicated concentrations. Cell viability was determined using the MTT assay. Data represent the mean values from triplicate assays (mean±s.d.). FIG. 1D-FIG. 1G. Biosensor analysis of the interaction of VEGF-C (FIG. 1D, FIG. 1E) and VEGF-C156S (FIG. 1F, FIG. 1G) with VEGFR-3 (FIG. 1D, FIG. 1F) and VEGFR-2 (FIG. 1E, FIG. 1G). Chimeric receptor proteins were immobilized onto a carboxymethylated dextran surface. Growth factors were injected over the surface at a flow rate of 20 μl/min at the indicated concentrations. The sensorgrams shown have been subtracted with the corresponding signal obtained when the same sample was passed over a blank control channel.
(§2) Bioassay for VEGFR stimulation. […]
(§3) VEGF is an endothelial cell mitogen which has been also shown to protect endothelial cells from starvation and TNF-a induced apoptosis via activation of VEGFR-2 (Gerber et al, J. Biol. Chem., 273:30336-30343, 1998; Spyridopoulos et al., J. Mol. Cell. Cardiol., 29:1321-1330, 1997). […] The specificities of the growth factors used were determined using a cell survival bioassay. […]

VEGFR-3/EpoR = molecular target: T1, VEGFR-3/EpoR; experiment: Ba/F3 bioassay, viability (MTT) of VEGFR-3/EpoR cells; type: cell-based
Description: as §1, §2, §3

Molecule	survival of VEGFR-1/EpoR cells (VEGFR-1/EpoR)	concentration which gave maximal viability in VEGFR-3/EpoR cell survival assays (VEGFR-3/EpoR; Ba/F3 VEGFR-3/EpoR cells) [ng/mL]	survival of VEGFR-3/EpoR expressing cells (VEGFR-3/EpoR; Ba/F3 cells, FIG. 1C)
VEGF	able to induce the survival of VEGFR-1/EpoR cells		
VEGF-C156S: VEGFR-3 specific mutant form of VEGF-C, cysteine 156 changed into serine; recombinant human (Thr103 to Ile225) (protein, UniProt P49767 103-225, looked up, variant C156S) TEETIKFAAAHYNTEILKSIDNEWRKTQCMPREVCIDVGKEFGVATNTFFKPPSVSVYRCGGCCNSEGLQCMNTSTSYLSKTLFEITVPLSQGPKPVTISFANHTSCRCMSKLDVYRQVHSII		500	VEGFR-3/EpoR expressing cells survived
